Source: paper PMC7019923

What was measured:
[1] = molecular target: T1, squid p30 (AUF1 homolog) (Aedes albopictus (cDNA from C6/36 cells), UniProt A0ABM1XVA0 2-281); assay: fluorescence intensity titration; details: protein: recombinant; tags: none after cleavage (SUMO fusion removed by SUMO protease)
T1 sequence: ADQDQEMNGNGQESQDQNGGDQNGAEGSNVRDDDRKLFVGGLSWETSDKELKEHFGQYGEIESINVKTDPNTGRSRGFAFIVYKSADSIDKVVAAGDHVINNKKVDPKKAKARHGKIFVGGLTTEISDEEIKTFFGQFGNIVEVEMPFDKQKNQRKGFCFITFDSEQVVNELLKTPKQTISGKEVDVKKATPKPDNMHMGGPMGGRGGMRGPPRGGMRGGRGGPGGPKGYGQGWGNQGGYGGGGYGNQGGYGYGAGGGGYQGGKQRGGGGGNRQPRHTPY

[2] = molecular target: T2, squid p32 (AUF1 homolog) (Aedes albopictus (cDNA from C6/36 cells), UniProt A0A023EP16 2-301); assay: fluorescence intensity titration; details: protein: recombinant; tags: none after cleavage (SUMO fusion removed by SUMO protease)
T2 sequence: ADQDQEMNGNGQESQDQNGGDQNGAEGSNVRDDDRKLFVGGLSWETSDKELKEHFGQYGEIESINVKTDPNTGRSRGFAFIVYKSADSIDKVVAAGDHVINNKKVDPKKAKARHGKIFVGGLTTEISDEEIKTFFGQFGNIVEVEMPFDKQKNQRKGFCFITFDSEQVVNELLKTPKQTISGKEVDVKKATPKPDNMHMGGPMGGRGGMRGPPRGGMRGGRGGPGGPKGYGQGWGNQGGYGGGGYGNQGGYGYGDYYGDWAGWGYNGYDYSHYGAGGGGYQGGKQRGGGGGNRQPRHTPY

B1: AU/GU-rich RNA (ssRNA)
RNA: UAUUUAGUGGUGUUAG
B1 was tested, and the Kd [1] was 0.013 µM and the Kd [2] was 0.13 µM.

B2: random RNA (ssRNA)
RNA: CUAAGAUGCUCGCUGC
B2 showed a Kd [1] of 0.25 µM and a Kd [2] of 0.63 µM.
